Measurements taken from patent US9315838B2, “Method to increase algal biomass and enhance its quality for the production of fuel” (priority 2012, dated 2016).
Entries after “also recorded” stand apart in the source; their conditions may differ.

Key:
[1] = system: Chlamydomonas reinhardtii; assay: TAG accumulation (ratio of fatty acids in TAG over total fatty acids) after N deprivation with DCMU; type: cell-based; conditions: 2 d of N deprivation, FIG. 8E
Protocol: FIG. 8. […] Two representative cultures per line are shown.
Strains and growth conditions.
(§1) Lipid extraction, thin-layer chromatography (TLC) of neutral lipids, transesterification and gas-liquid chromatography were done according to (Moellering and Benning 2010). Briefly, lipids were extracted from cell pellets with methanol, chloroform, 88% formic acid (2:1:0.1 by volume). To the extract 0.5 volume of 1M KCl, 0.2 M H3PO4 was added, mixed and phases were separated by low speed centrifugation. For TAG quantification, lipids were resolved by TLC on Silica G60 plates (EMD chemicals, #5721-7, http://www.emdchemicals.com) developed in petroleum ether-diethyl ether-acetic acid (80:20:1 by volume). Polar lipids were separated on the same plate using chloroform-methanol-acetic acid-H2O (75:13:9:3 by volume) as solvent. To analyze lyso-glycolipids during for the PGD1 assay, acetone-toluene-H2O (91:30:7.5 by volume) was used, instead. Brief exposure to iodine vapor was employed for visualization of lipids. Transesterification of each lipid and separation of fatty acid methyl esters by GLC were as previously described (Rossak et al. 1997). Transesterification was conducted on pellets with a known number of cells to determine the cellular total fatty acid content. Staining with α-naphtol (Benning et al. 1995) was used for the PGD1 assay to detect galactoglycerolipids.

[2] = system: Chlamydomonas reinhardtii pgd1 mutant; assay: Thiobarbituric acid reactive substances (TBARS) analysis following N deprivation; conditions: DCMU 2 μM, FIG. 8D
[3] = system: Chlamydomonas reinhardtii pgd1 mutant; assay: Chlorosis, chlorophyll content and cell viability of N-deprived cultures with DCMU; conditions: DCMU 2 μM added to N-deprived (TAP-N) cultures
[4] = PGD1 lipase assay on MGDG; type: biochemical
Protocol: as §1
BL21 (codon+) E. coli strains harboring the empty pMK1006 vector or the pMK1006-PGD1 construct were grown to log phase at 37° C. Isopropyl-β-D-thiogalactopyranoside was added to the final concentration of 0.5 mM to induce protein production. Cells were harvested after 3 hours of induction. To extract proteins, cells were resuspended in lysis buffer (20 mM Tris-HCl, pH 7.9, 10% glycerol, 150 mM NaCl, 1 mM dithiothreitol). The mixture was then frozen in liquid nitrogen and thawed at room temperature for three cycles and sonicated to lyse cells. Lysates were centrifuged at 21,000×g for 15 minutes to obtain inclusion bodies. Inclusion bodies were washed with 5 mL/g wash buffer (4 M urea, 0.5 M NaCl, 1 mM EDTA, 1 mg/ml sodium deoxycholate, 50 mM Tris-Cl pH 8.0) twice and denatured with solubilization buffer (8 M urea, 50 mM Tris-Cl pH 8.0, 10 mM dithiothreitol) by incubation at 50° C. for 20 min. Supernatant was collected after centrifugation at 21,000×g for 30 minutes and subjected to Ni-NTA affinity purification as described before (Lu and Benning 2009). His-tagged PGD1 protein was eluted with solubilization buffer containing 200 mM imidazole. […] After 1 hour incubation at 4° C., proteins were aliquoted and kept frozen at −80° C. Protein concentration was determined with Bio-Rad Protein Assay Dye Reagent Concentrate (http://www.bio-rad.com) according to the manufacturer's instructions.
To prepare lipid substrates from Chlamydomonas or E. coli cells, lipids were extracted from 48 hours N-deprived Chlamydomonas cells or IPTG induced E. coli cells expressing cucumber MGDG synthase (Shimojima et al. 1997) and resolved by polar TLC. Corresponding bands were isolated and lipids were recovered from silica gel by extraction with chloroform-methanol (1:1 by volume). For each PGD1 reaction, 75 nmol lipid substrates extracted from Chlamydomonas, or E. coli cells expressing the cucumber MGDG synthase were used. […] Per assay 10 μg refolded PGD1 protein (quantified as stated above) in 50 μL protein refolding buffer was added. […]

[5] = PGD1 lipase assay on DGDG; type: biochemical, Chlamydomonas
Protocol: (§2) Lipid extraction, thin-layer chromatography (TLC) of neutral lipids, transesterification and gas-liquid chromatography were done according to (Moellering and Benning 2010). Briefly, lipids were extracted from cell pellets with methanol, chloroform, 88% formic acid (2:1:0.1 by volume). To the extract 0.5 volume of 1M KCl, 0.2 M H3PO4 was added, mixed and phases were separated by low speed centrifugation. For TAG quantification, lipids were resolved by TLC on Silica G60 plates (EMD chemicals, #5721-7, http://www.emdchemicals.com) developed in petroleum ether-diethyl ether-acetic acid (80:20:1 by volume). Polar lipids were separated on the same plate using chloroform-methanol-acetic acid-H2O (75:13:9:3 by volume) as solvent. […]
(§3) BL21 (codon+) E. coli strains harboring the empty pMK1006 vector or the pMK1006-PGD1 construct were grown to log phase at 37° C. […] Protein concentration was determined with Bio-Rad Protein Assay Dye Reagent Concentrate (http://www.bio-rad.com) according to the manufacturer's instructions.
(§4) To prepare lipid substrates from Chlamydomonas or E. coli cells, lipids were extracted from 48 hours N-deprived Chlamydomonas cells or IPTG induced E. coli cells expressing cucumber MGDG synthase (Shimojima et al. 1997) and resolved by polar TLC. […] Per assay 10 μg refolded PGD1 protein (quantified as stated above) in 50 μL protein refolding buffer was added. […]

[6] = PGD1 lipase assay on other major membrane lipids; type: biochemical, Chlamydomonas
Protocol: as §2, §3, §4

| Molecule | pgd1 TAG phenotype ([1]; pgd1 mutant, DCMU 2 μM) | TAG levels of the wild-type parental strain ([1]; wild-type parental strain dw15-1, DCMU 2 μM) | burst of TBARS in the pgd1 mutant [2] | chlorosis ([3]; FIG. 8A, B) | viability loss ([3]; FIG. 8C) | apparent MGDG concentration up to which hydrolysis was linear in reaction velocity ([4]; E. coli-derived MGDG, 3 hours incubation, FIG. 15B) [µM] | time at which lyso-MGDG was detectable ([4]; E. coli-derived MGDG, FIG. 15A) [min] | positional preference of acyl group hydrolysis ([4]; E. coli-derived MGDG, compared with Rhizopus lipase digestion, FIG. 7H, 7I) | activity on E. coli-derived MGDG versus mature MGDG from Chlamydomonas ([4]; intensity of the lyso-MGDG band, FIG. 7B) | lyso-MGDG product generated ([4]; mature MGDG isolated from Chlamydomonas (predominantly 18:3/16:4), TLC, FIG. 7B) | formation of lyso-DGDG ([5]; DGDG extracted from Chlamydomonas, sugar-specific staining, FIG. 7C) | product formed in competition experiment ([5]; E. coli-derived MGDG and Chlamydomonas-derived DGDG offered in equal amounts) | generation of lyso-DGTS and lyso-PtdEtn ([6]; iodine staining, compared with Rhizopus lipase, FIGS. 16A and 16B) | Lyso-SQDG hydrolysis ([6]; sugar-specific staining, FIG. 16D) |
| --- | --- | --- | --- | --- | --- | --- | --- | --- | --- | --- | --- | --- | --- | --- |
| CN(C)C(=O)Nc1ccc(Cl)c(Cl)c1 [DCMU, 3-(3,4-dichlorophenyl)-1,1-dimethylurea] | did not rescue | decrease; also recorded: lower levels of TAG | reverted | suppressed | suppressed |  |  |  |  |  |  |  |  |  |
| PGD1: recombinant Chlamydomonas galactoglycerolipid lipase (SEQ ID NO:1), His-tagged, purified from E. coli inclusion bodies and refolded (protein, listed as Chlamydomonas reinhardtii, His tag) MSQLLSHFVRVPTFASPDQVLREARDKERELQNARAPTDVSGFLAPVGVWELKHLRKLSSLTSLTYYMHLVTPRRLQLMHGLDLVVTSRACDVRPYEHNRTAEECGADGDGMAVSFAEARQVYAELKRGTGGASGSGSNGAAAAPVAVAAGVSNIVALPRELPFVPLPGGATEGGEAGAEAAAGAAAAAAAAAGEGTGPGAQGQGAGGLQLPLASTEAIGRMLRSPAEVVSAKLAEAALAASAAAAASPLGAAAESFYAGLASLPIPLAGGLVGANNKAANTLLAPPNGAAASSSGGGGGSGGAAAASEVVGSSRGAQGADPADPGAPNTSGKATAASIAAMATAELRSRRLGGTGPAKTGGSGAASSGSSSGGIGAGGMAPVTAGGMRLSPAATAFSAPPAATVSSLASTDAGTALVPVASSSAASLTFSSSSAYSCPSEWFVVDDPASATRIFVIQGSDTLDHWKLNLTFDPVVFEEPALGVKVHRGVYEAALVLYERFLPLVYEHLEASPFSKVTFTGHSIGGSMATLLMLMYRNRGVLPPHSIATVYTFGAPAVFCQQQQPAVADASSACCNGSSSNGSSTPASGSSSPRSGSPGSASASSLPAGSGSGAGGMSLWALGLSGFGMGGASLAGGGSTSAPSSTAGLASVDGGAVAAGGGGSGFNSSGLGFMSVEDPQAVSMPPGAAQAPSPASAPAPTAGPGHNSHSSHSKAGPAAAKSCACGVDGLLTRLGLAPHVVRNVVMARDVVPRAFACDYSLVADILKGWGPAFREHCCLNRHGRKHLYYFVGRMCILQPDAWHSFVGGDPEHPMLPPGPELYALAEPEDAAAARAHYPALSDLPILNAVTSNGHTRGSGGNGANAAVNAAVNASGPSAAASGGGGGSQQPTAAAAVPSTANFGTALVASAAQRERDARGGGSRLQPRSVVEAVWEIMDNPHPLETLADPGAYLASGSISRYHNPEHYTKALGRLTHLKRLAERRQHPHGQAQQKQAQPQAGEGGIRSMFAGRNIRSFGGGVRSGSGSGSAGRRGLLHQQAASNGTAADAVLASGAAGAAAAAWGSAPQLADLVSGNGGRASAGYEGGVWDSSDGLDLHLSDFMGASAVGAADPHACR |  |  |  |  |  | ≤ 300 | 30 | prefers acyl groups at the sn-1 position | more active | rather faint | no formation of lyso-DGDG was detected | only lyso-MGDG was formed | detectable by iodine staining, but at much lower levels | not detectable |
